Read-outs that look alike come from different tables or passages of the source.
What was measured:
HLA-A*1101 (human) [1] = assay: competition with 125I-labelled standard peptide for purified HLA, gel filtration
HLA-A*3301 (human) = assay: as above
HLA-A*0301 (human) [2] = assay: as above
HLA-A*6801 (human) = assay: as above
[3] = molecular target: HLA-DR2w2β1 (DRB1*1501) (human)
[4] = molecular target: HLA-DR3 (DRB1*0301) (human)
[5] = molecular target: HLA-DR5w11 (DRB1*1101) (human)
[6] = molecular target: HLA-DR4w4 (DRB1*0401) (human)
[7] = molecular target: HLA-DR4w15 (DRB1*0405) (human)
[8] = molecular target: HLA-DR1 (DRB1*0101) (human)
[9] = molecular target: T1, HLA-DR6w19 (DRB1*1302) (human)
T1 chain 1: not shown
T1 chain 2: not shown

[10] = molecular target: T2, HLA-DR7 (DRB1*0701) (human)
T2 chain 1: not shown
T2 chain 2: not shown

[11] = molecular target: T3, HLA-DRw53 (DRB4*0101) (human)
T3 chain 1: not shown
T3 chain 2: not shown

[12] = molecular target: T4, HLA-DR9 (DRB1*0901) (human)
T4 chain 1: not shown
T4 chain 2: not shown

[13] = molecular target: T5, HLA-DR5w12 (DRB1*1201) (human)
T5 chain 1: not shown
T5 chain 2: not shown

[14] = molecular target: T6, HLA-DR8w2 (DRB1*0802) (human)
T6 chain 1: not shown
T6 chain 2: not shown

HLA-A*1101 (human) [15] = molecular target: HLA-A*1101 (human)
HLA-A*1101 (Human) [16] = molecular target: HLA-A*1101 (Human)
[17] = molecular target: HLA-DR2w2β2 (DRB5*0101) (human)
[18] = molecular target: T1, HLA-DR6w19 (DRB1*1302) (human)
[19] = molecular target: T2, HLA-DR7 (DRB1*0701) (human)
[20] = molecular target: T4, HLA-DR9 (DRB1*0901) (human)
[21] = molecular target: T5, HLA-DR5w12 (DRB1*1201) (human)
[22] = molecular target: T6, HLA-DR8w2 (DRB1*0802) (human)
HLA-A*1101 (human) [23] = assay: competition with 125I-labeled probe peptide for purified HLA, gel filtration; settings: scale: ratio
HLA-A*0301 (human) [24] = assay: as above; settings: scale: ratio
[25] = molecular target: HLA-A*1101 (purified HLA class I molecule) (human)

PSPNPEEGK (modifications not checked) showed a binding affinity ratio (IC50 of standard peptide / IC50 of test peptide) (HLA-A*1101 (human) [1]) of 0.0002, a binding affinity ratio (IC50 of standard peptide / IC50 of test peptide) (HLA-A*3301 (human)) of 0.001 and a binding affinity ratio (IC50 of standard peptide / IC50 of test peptide) (HLA-A*0301 (human) [2]) of 0.0005. For the same binder, the binding affinity ratio (IC50 of standard peptide / IC50 of test peptide) (HLA-A*6801 (human)) was 0.0002.

Binder IGPFMKAVCVEVEKT (modifications not checked) has a binding affinity ratio (IC50 of standard peptide / IC50 of test peptide) [3] of 0.0003, a binding affinity ratio (IC50 of standard peptide / IC50 of test peptide) [4] of -0.0008 and a binding affinity ratio (IC50 of standard peptide / IC50 of test peptide) [5] of -0.0004. It also gave a binding affinity ratio (IC50 of standard peptide / IC50 of test peptide) [6] of -0.0006, a binding affinity ratio (IC50 of standard peptide / IC50 of test peptide) [7] of 0.0086 and a binding affinity ratio (IC50 of standard peptide / IC50 of test peptide) [8] of 0.0072.

Binder IGPFMKAVCVEVEKT (modifications not checked) [… (Pf SSP2 227)] has a binding affinity ratio (IC50 of standard peptide / IC50 of test peptide) [9] of 0.0003, a binding affinity ratio (IC50 of standard peptide / IC50 of test peptide) [10] of 0.0019 and a binding affinity ratio (IC50 of standard peptide / IC50 of test peptide) [11] of 0.07. For the same binder, the binding affinity ratio (IC50 of standard peptide / IC50 of test peptide) [12] was 0.082, the binding affinity ratio (IC50 of standard peptide / IC50 of test peptide) [13] was 0.0038 and the binding affinity ratio (IC50 of standard peptide / IC50 of test peptide) [14] was -0.0003.

LALFFIIFNK (modifications not checked) [Pf EXP peptide … (position 9)] gave a binding affinity ratio (relative to standard peptide) (HLA-A*1101 (human) [15]) of 0.053.

Binder LDYENDIEK (modifications not checked) has a binding affinity ratio (IC50 of standard peptide / IC50 of test peptide) (HLA-A*1101 (Human) [16]) of 0.0002.

In the case of VSTVLLGGVGLVLYN (modifications not checked), the binding affinity ratio (IC50 of standard peptide / IC50 of test peptide) [3] is reported as 0.008, the binding affinity ratio (IC50 of standard peptide / IC50 of test peptide) [4] is reported as -0.0008 and the binding affinity ratio (IC50 of standard peptide / IC50 of test peptide) [5] is reported as 0.0003. For the same binder, the binding affinity ratio (IC50 of standard peptide / IC50 of test peptide) [7] was -0.0009 and the binding affinity ratio (IC50 of standard peptide / IC50 of test peptide) [17] was 0.0005.

With CVEVEKTASCGVWDE (modifications not checked) the binding affinity ratio (IC50 of standard peptide / IC50 of test peptide) [5] was -0.0002, the binding affinity ratio (IC50 of standard peptide / IC50 of test peptide) [6] was 0.0021 and the binding affinity ratio (IC50 of standard peptide / IC50 of test peptide) [7] was -0.0009. It also gave a binding affinity ratio (IC50 of standard peptide / IC50 of test peptide) [8] of 0.0004 and a binding affinity ratio (IC50 of standard peptide / IC50 of test peptide) [17] of -0.0005.

In the case of VFFLALFFIIFNKES (modifications not checked) [… (Pf EXP 6)], the binding affinity ratio (IC50 of standard peptide / IC50 of test peptide) [18] is reported as -0.0002, the binding affinity ratio (IC50 of standard peptide / IC50 of test peptide) [19] is reported as 0.0056 and the binding affinity ratio (IC50 of standard peptide / IC50 of test peptide) [20] is reported as -0.0018. The binding affinity ratio (IC50 of standard peptide / IC50 of test peptide) [21] was 0.0002 and the binding affinity ratio (IC50 of standard peptide / IC50 of test peptide) [22] was -0.0007.

Binder RHPFKIGSSDPADNA (modifications not checked) [… (Pf EXP 107)] has a binding affinity ratio (IC50 of standard peptide / IC50 of test peptide) [9] of 0.0003, a binding affinity ratio (IC50 of standard peptide / IC50 of test peptide) [10] of -0.0003 and a binding affinity ratio (IC50 of standard peptide / IC50 of test peptide) [12] of 0.095. For the same binder, the binding affinity ratio (IC50 of standard peptide / IC50 of test peptide) [13] was 0.0001 and the binding affinity ratio (IC50 of standard peptide / IC50 of test peptide) [14] was 0.038.

Work on NLYNELEMNY (modifications not checked) [… (CSP 46)] yielded a binding affinity ratio (IC50 of standard peptide / IC50 of test peptide) (HLA-A*1101 (Human) [16]) of 0.0002.

Binder ADSAWENVK (modifications not checked) [… (Pf SSP2 position 216)] has a binding affinity ratio (IC50 of standard peptide / IC50 of test peptide) (HLA-A*1101 (human) [15]) of 0.0009.

LDYENDIEKK (modifications not checked) showed a binding affinity ratio (IC50 of standard peptide / IC50 of test peptide) (HLA-A*1101 (Human) [16]) of 0.0002.

In the case of ANQLVVILTDGIPDS (modifications not checked) [… (Pf SSP2 153)], the binding affinity ratio (IC50 of standard peptide / IC50 of test peptide) [9] is reported as 0.007, the binding affinity ratio (IC50 of standard peptide / IC50 of test peptide) [10] is reported as 0.0054 and the binding affinity ratio (IC50 of standard peptide / IC50 of test peptide) [12] is reported as 0.042. It also gave a binding affinity ratio (IC50 of standard peptide / IC50 of test peptide) [13] of 0.0003 and a binding affinity ratio (IC50 of standard peptide / IC50 of test peptide) [14] of -0.0002.

NGDNGREGK (modifications not checked) [… (CSP 82)] was tested, and the binding affinity ratio (IC50 of standard peptide / IC50 of test peptide) (HLA-A*1101 (Human) [16]) was 0.0002.

NLPNDKSDR (modifications not checked) [… (Pf SSP2 406)] gave a binding affinity ratio (IC50 of standard peptide / IC50 of test peptide) (HLA-A*1101 (human) [15]) of 0.0002.

Binder NMPNDPNRNV (modifications not checked) [… (P. falciparum CSP, position 323, 10 amino acids)] has a binding affinity ratio (IC50 of standard peptide / IC50 of test peptide) (HLA-A*0201 (human)) of 0.0007.

In the case of ILSVFFLALFFIIFN (modifications not checked) [… (Pf EXP 3)], the binding affinity ratio (IC50 of standard peptide / IC50 of test peptide) [18] is reported as 0.0005, the binding affinity ratio (IC50 of standard peptide / IC50 of test peptide) [19] is reported as 0.011 and the binding affinity ratio (IC50 of standard peptide / IC50 of test peptide) [20] is reported as -0.0003. For the same binder, the binding affinity ratio (IC50 of standard peptide / IC50 of test peptide) [21] was 0.0008 and the binding affinity ratio (IC50 of standard peptide / IC50 of test peptide) [22] was 0.0031.

With GVSSKKKNK (modifications not checked) [… (P. falciparum EXP, position 32, 9 amino acids)] the binding affinity ratio (relative to standard peptide) (HLA-A*1101 (human) [23]) was 0.0002 and the binding affinity ratio (relative to standard peptide) (HLA-A*0301 (human) [24]) was 0.0001.

GVSSKKKNKK (modifications not checked) [… (P. falciparum EXP, position 32, 10 amino acids)] gave a binding affinity ratio (relative to standard peptide) (HLA-A*1101 (human) [23]) of 0.0002 and a binding affinity ratio (relative to standard peptide) (HLA-A*0301 (human) [24]) of 0.0011.

With MKILSVFFLALFFII (modifications not checked) [… (Pf EXP 1)] the binding affinity ratio (IC50 of standard peptide / IC50 of test peptide) [9] was 0.0019, the binding affinity ratio (IC50 of standard peptide / IC50 of test peptide) [10] was 0.036 and the binding affinity ratio (IC50 of standard peptide / IC50 of test peptide) [12] was 0.006. For the same binder, the binding affinity ratio (IC50 of standard peptide / IC50 of test peptide) [13] was 0.0023 and the binding affinity ratio (IC50 of standard peptide / IC50 of test peptide) [14] was 0.0023.

Binder ANQLVVILTDGIPDS (modifications not checked) has a binding affinity ratio (IC50 of standard peptide / IC50 of test peptide) [3] of 0.0008, a binding affinity ratio (IC50 of standard peptide / IC50 of test peptide) [5] of -0.0002 and a binding affinity ratio (IC50 of standard peptide / IC50 of test peptide) [17] of -0.0005.

For TVLLGGVGLVLYNTE (modifications not checked) [… (Pf EXP 90)], the binding affinity ratio (IC50 of standard peptide / IC50 of test peptide) [19] was 0.0007, the binding affinity ratio (IC50 of standard peptide / IC50 of test peptide) [21] was 0.0004 and the binding affinity ratio (IC50 of standard peptide / IC50 of test peptide) [22] was -0.0002.

NGREGKDEDK (modifications not checked) [… (CSP 85)] showed a binding affinity ratio (IC50 of standard peptide / IC50 of test peptide) (HLA-A*1101 (Human) [16]) of 0.0002.

In the case of TCGKGTRSRK (modifications not checked) [… (Pf SSP2 256, 10-mer)], the binding affinity ratio (IC50 of standard peptide / IC50 of test peptide) [25] is reported as 0.0002.

For LIDVHDLISDMIKKE (modifications not checked) [… (Pf EXP 47)], the binding affinity ratio (IC50 of standard peptide / IC50 of test peptide) [9] was 0.0004, the binding affinity ratio (IC50 of standard peptide / IC50 of test peptide) [10] was 0.01 and the binding affinity ratio (IC50 of standard peptide / IC50 of test peptide) [11] was 0.094. The binding affinity ratio (IC50 of standard peptide / IC50 of test peptide) [12] was 0.043, the binding affinity ratio (IC50 of standard peptide / IC50 of test peptide) [13] was 0.0001 and the binding affinity ratio (IC50 of standard peptide / IC50 of test peptide) [14] was 0.0096.

With SVFNVVNSSI (modifications not checked) [… (P. falciparum CSP, position 415, 10 amino acids)] the binding affinity ratio (IC50 of standard peptide / IC50 of test peptide) (HLA-A*0201 (human)) was 0.0005.

VTCGNGIQV (modifications not checked) [… (P. falciparum CSP, position 375, 9 amino acids)] showed a binding affinity ratio (IC50 of standard peptide / IC50 of test peptide) (HLA-A*0201 (human)) of 0.0011.

QVRKHLNDR (modifications not checked) showed a binding affinity ratio (IC50 of standard peptide / IC50 of test peptide) (HLA-A*1101 (human) [1]) of 0.0002, a binding affinity ratio (IC50 of standard peptide / IC50 of test peptide) (HLA-A*0301 (human) [2]) of 0.0005 and a binding affinity ratio (IC50 of standard peptide / IC50 of test peptide) (HLA-A*6801 (human)) of 0.0002.

SDASKNKEK (modifications not checked) [… (Pf SSP2 105, 9-mer)] was tested, and the binding affinity ratio (IC50 of standard peptide / IC50 of test peptide) [25] was 0.0002.

Work on VSTVLLGGVGLVLYN (modifications not checked) [… (Pf EXP 88)] yielded a binding affinity ratio (IC50 of standard peptide / IC50 of test peptide) [18] of 0.0002, a binding affinity ratio (IC50 of standard peptide / IC50 of test peptide) [19] of 0.002 and a binding affinity ratio (IC50 of standard peptide / IC50 of test peptide) [20] of 0.012. The binding affinity ratio (IC50 of standard peptide / IC50 of test peptide) [21] was 0.0011 and the binding affinity ratio (IC50 of standard peptide / IC50 of test peptide) [22] was -0.0002.

SVTCGKGTR (modifications not checked) [… (Pf SSP2 254, 9-mer)] gave a binding affinity ratio (IC50 of standard peptide / IC50 of test peptide) [25] of 0.0009.

From US9266930
